{
  "source": "patent CN110713539A",
  "binders": {"B1": {"name": "OLD-2ND-3-H6-scFv-mIgG1 (Fc fusion, part only; not given: linker and mouse Fc tag, not shown: a dimerising Fc or GST)", "chain, part": "ETTLTQSPGTLSLSPGERATLSCRASQSVNNNFLGWYQQRVGQAPRLLIYGASSRATGIPDRFSGSGSGTDFTLTISRLEPEDFAVYYCQQYGSSPLTFGGGTKVEIKMAQVQLQESGGGSVQPGGSLRLSCAASGFTFSSYAMSWVRQAPGKGLEWVSHISGSGGNTYYADSVKGRFTISRDNSKNTLYLQMNSLRAEDTAVYYCAKSWGSSNYGTFDIWGQGTVVTVSS"}},
  "molecular_target": "CEA抗原 (癌胚抗原, Carcinoembrynio Antigen), soluble antigen (UniProt P06731)",
  "sequence (P06731 35-685 limits assumed)": "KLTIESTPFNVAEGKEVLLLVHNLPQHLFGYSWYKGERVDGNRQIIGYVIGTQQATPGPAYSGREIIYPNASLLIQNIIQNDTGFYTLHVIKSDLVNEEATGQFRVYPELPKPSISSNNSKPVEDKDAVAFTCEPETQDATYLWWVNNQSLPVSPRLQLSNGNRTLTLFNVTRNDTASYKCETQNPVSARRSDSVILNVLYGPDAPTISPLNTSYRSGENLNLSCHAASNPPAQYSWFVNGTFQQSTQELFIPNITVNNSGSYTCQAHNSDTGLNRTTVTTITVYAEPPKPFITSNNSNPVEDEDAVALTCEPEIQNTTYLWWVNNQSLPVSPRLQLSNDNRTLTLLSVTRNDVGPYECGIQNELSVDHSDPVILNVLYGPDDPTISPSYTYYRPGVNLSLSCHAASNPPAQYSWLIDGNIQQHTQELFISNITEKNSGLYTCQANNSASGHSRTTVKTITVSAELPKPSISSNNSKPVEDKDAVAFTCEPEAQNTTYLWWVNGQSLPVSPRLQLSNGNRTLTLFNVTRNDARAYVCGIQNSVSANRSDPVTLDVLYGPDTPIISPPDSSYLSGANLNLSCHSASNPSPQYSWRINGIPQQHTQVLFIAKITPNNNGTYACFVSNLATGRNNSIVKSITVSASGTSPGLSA",
  "assay": "SPR (Biacore), antibody immobilised on chip, antigen in solution, 1:1 binding",
  "data": [
    {"binder": "B1", "values": [
      {"measurement": "Kd", "value": 43.1, "unit": "nM"},
      {"measurement": "koff", "value": 0.0111, "unit": "s⁻¹"},
      {"measurement": "kon", "value": 259000, "unit": "M⁻¹ s⁻¹"}
    ]}
  ]
}
